In article PMC5261807 (2017) one finds binding score data, which are given here for 45 molecules.

Experiment [1] has as its target T1, Bdf1 bromodomain 2 (GST-tagged, WT) (Saccharomyces cerevisiae (strain ATCC …, UniProt P35817)).
T1 chain: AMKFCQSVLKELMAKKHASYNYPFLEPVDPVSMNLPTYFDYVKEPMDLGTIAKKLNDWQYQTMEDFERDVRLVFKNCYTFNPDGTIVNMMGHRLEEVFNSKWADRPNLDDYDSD
The experiment can be described thus: histone peptide array probed with recombinant GST-bromodomain, signal normalised to myc peptide control.

For experiment [2], the target named is T2, Bdf1 bromodomain 1 (GST-tagged, WT) (Saccharomyces cerevisiae (strain ATCC …, UniProt P35817)).
T2 chain: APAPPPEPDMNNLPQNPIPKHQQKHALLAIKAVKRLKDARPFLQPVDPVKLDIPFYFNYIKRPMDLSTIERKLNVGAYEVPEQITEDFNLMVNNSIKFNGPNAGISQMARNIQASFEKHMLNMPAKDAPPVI
The experiment is described as above.

Non-standard residues stand in square brackets, D forms with d. No end group written: not given here. Arg(Me2a) = CN(C)C(=N)NCCC[C@H](N)C(=O)O; Lys(Me3) = C[N+](C)(C)CCCC[C@H](N)C(=O)O; Arg(Me2s) = CN=C(NC)NCCC[C@H](N)C(=O)O; pT = C[C@@H](OP(=O)(O)O)[C@H](N)C(=O)O; Lys(Me2) = CN(C)CCCC[C@H](N)C(=O)O; pS = N[C@@H](COP(=O)(O)O)C(=O)O; Lys(Me) = CNCCCC[C@H](N)C(=O)O

Take A[Arg(Me2a)]T[Lys(Me2)]QTARKSTGGKAPRKQ: the binding score in experiment [1] was 0; in experiment [2], 0.00161.
Take ARTKQTARKSTGGKAPRKQ (A Rme2a T Kme2 Q T A Rme2s Kme1 S T G G K A P R K Q): the binding score in experiment [1] was determined as 0; in experiment [2] it was 0.0163.
For ARTKQTARKSTGGKAPRKQ (A Rme2s T Kme1 Q T A Rme2s Kme1 S T G G K A P R K Q), in that order: 0.00443 and 0.0134.
For ARTKQTARKSTGGKAPRKQ (A R T K Q T A R Kme2 S T G G K A P R K Q), in that order: 0.00679 and 0.00269.
For ARTKQTARKSTGGKAPRKQ (A R T Kme1 Q T A Rme2a Kme1 S T G G K A P R K Q), in that order: 0 and 0.0154.
Consider ARTKQTARKSTGGKAPRKQ (A R T Kac Q T A Rme2a Kme3 S T G G K A P R K Q), for which the binding score in experiment [1] turned out to be 0; in experiment [2], 0.0328.
For ARTKQTARKSTGGKAPRKQ (A Rme2s T Kme2 Q T A Rme2a Kac S T G G K A P R K Q), in that order: 0.0107 and 0.0108.
PRKQLATKAA[Arg(Me2a)]K(Ac)SAPATGG: the binding score is 0.0393 in experiment [1] and 0 in experiment [2].
Consider ARTKQTARKSTGGKAPRKQ (A R T Kme2 Q T A Rme2a Kme3 S T G G K A P R K Q), for which the binding score in experiment [1] and in experiment [2] was 0 each time.
In the case of PDPAK(Ac)SAPAPKKGSKKAVT, the results for the binding score in experiment [1] and in experiment [2] were 0 and 0.00502, respectively.
For PDPAK(Ac)SAPAPKK(Ac)G[pS]KKAVT, in that order: 0 and 0.00663.
In the case of SGRGKGGKGLGKGGAKRHR (S G Rme2s G Kac G G Kac G L G Kac G G A K R H R), the binding score amounted to 0.605 in experiment [1] and 0.391 in experiment [2].
As for ARTKQTA[Arg(Me2a)]K(Ac)S[pT]GGKAPRKQ, the binding score in experiment [1] stood at 0; in experiment [2], 0.0043.
For ARTKQTARKSTGGKAPRKQ (A R T Kme1 Q T A Rme2a Kme3 S T G G K A P R K Q), in that order: 0 and 0.00179.
Take PRKQLATKAARK(Ac)[pS]APATGG: the binding score in experiment [1] and in experiment [2] was 0 each time.
Take ARTKQTARKSTGGKAPRKQ (A Rme2s T Kme1 Q T A R Kme3 S T G G K A P R K Q): the binding score was 0.000295 in experiment [1] and 0 in experiment [2].
Take PDPAKSAPAPKKG[pS]K(Ac)KAVT: the binding score came to 0.142 in experiment [1] and 0.0142 in experiment [2].
For ARTKQTARKSTGGKAPRKQ (A Rme2s T Kac Q T A R Kme3 S T G G K A P R K Q), in that order: 0 and 0.00412.
For ARTKQTARKSTGGKAPRKQ (A R T Kme1 Q T A Rme2a Kme2 S T G G K A P R K Q), in that order: 0.00738 and 0.00699.
For A[Arg(Me2a)]TK(Ac)QTARK(Ac)STGGKAPRKQ, in that order: 0.0627 and 0.0911.
SGRGK(Ac)QGGK(Ac)ARAKAKSRSS: the binding score came out at 0.141 in experiment [1] and 0.0332 in experiment [2].
Consider ARTKQTARKSTGGKAPRKQ (A Rme2a T Kme3 Q T A Rme2a K S T G G K A P R K Q), for which the results for the binding score in experiment [1] and in experiment [2] were 0.00541 and 0.0102, respectively.
For ARTKQTARKSTGGKAPRKQ (A Rme2s T Kme1 Q T A Rme2a Kac S T G G K A P R K Q), in that order: 0.00462 and 0.00628.
For A[Arg(Me2a)]T[Lys(Me2)]QTA[Arg(Me2a)][Lys(Me2)]STGGKAPRKQ, in that order: 0 and 0.00126.
For SGRGKGGKGLGKGGAKRHR (pS G Rme2a G Kac G G Kac G L G K G G A K R H R), in that order: 0.206 and 0.0927.
Consider ART[Lys(Me2)]QTA[Arg(Me2a)][Lys(Me)]STGGKAPRKQ, for which the binding score in experiment [1] is 0; in experiment [2], 0.000717.
For ARTKQTARKSTGGKAPRKQ (A Rme2a T Kme1 Q T A Rme2a Kme1 S T G G K A P R K Q), in that order: 0 and 0.
For ARTKQTARKSTGGKAPRKQ (A R T K Q T A Rme2s K S T G G K A P R K Q), in that order: 0 and 0.00305.
For PRKQLATKAA[Arg(Me2s)]K(Ac)SAPATGG, in that order: 0.081 and 0.00843.
In the case of ARTKQTARKSTGGKAPRKQ (A R T Kme3 Q T A Rme2a Kme3 S T G G K A P R K Q), the binding score in experiment [1] was determined as 0; in experiment [2], 0.00538.
For A[Arg(Me2a)]T[Lys(Me)]QTA[Arg(Me2s)][Lys(Me2)]STGGKAPRKQ, in that order: 0 and 0.00448.
As to ARTKQTARKSTGGKAPRKQ (A Rme2a T Kac Q T A R Kme2 S T G G K A P R K Q), the binding score in experiment [1] was determined as 0.00915; in experiment [2], 0.0255.
For [pS]GRGKQGGKARAK(Ac)AKSRSS, the binding score in experiment [1] was 0.0125; in experiment [2], 0.00484.
For ARTKQTARKSTGGKAPRKQ (A Rme2a T Kme3 Q T A Rme2a Kme2 S T G G K A P R K Q), in that order: 0 and 0.
In the case of PDPAKSAPAPKKGSK(Ac)KAVT, the binding score in experiment [1] came out at 0; in experiment [2] it was 0.00825.
Turning to A[Arg(Me2s)]T[Lys(Me3)]QTA[Arg(Me2a)][Lys(Me)]STGGKAPRKQ, the binding score in experiment [1] and in experiment [2] was 0 in each case.
Take PRKQLATKAA[Arg(Me2s)][Lys(Me3)]SAPATGG: the binding score in experiment [1] is 0; in experiment [2], 5.8e-17.
For ARTKQTARKSTGGKAPRKQ (A Rme2s T Kme3 Q T A Rme2s K S T G G K A P R K Q), in that order: 0 and 0.00861.
Consider A[Arg(Me2a)]T[Lys(Me2)]QTA[Arg(Me2s)][Lys(Me3)]STGGKAPRKQ, for which the results for the binding score in experiment [1] and in experiment [2] were 0 and 0.0167, respectively.
For ARTKQTARKSTGGKAPRKQ (A Rme2s T Kac Q T A Rme2s K S T G G K A P R K Q), in that order: 0.00876 and 0.
For the molecule ARTKQTARKSTGGKAPRKQ (A Rme2a T Kme3 Q T A R Kac S T G G K A P R K Q), the binding score in experiment [1] amounted to 0.00758; in experiment [2], 0.00628.
ARTKQTARKSTGGKAPRKQ (A R T K Q T A R Kac pS T G G K A P R K Q): the binding score in experiment [1] and in experiment [2] was 0 each time.
On to ARTKQTARKSTGGKAPRKQ (A Rme2s pT Kme3 Q T A R K S T G G K A P R K Q), for which the binding score in experiment [1] came out at 0.00895; in experiment [2], 0.00538.
For ARTKQTARKSTGGKAPRKQ (A R T K Q T A Rme2s Kme3 S pT G G K A P R K Q), in that order: 0.00561 and 0.
For ARTKQTARKSTGGKAPRKQ (A Rme2a T Kme1 Q T A Rme2a K S T G G K A P R K Q), in that order: 0.00443 and 0.00341.
